Results taken from the supplement of paper PMC7125110.
± gives the standard error. This sample holds only a part of the variants without activity.

B1: glmS ribozyme (parent)
chain: AUAAAAGCGCCAGAACUACAGAAAUGUAGUUGACGAGGAGGAGGUUUAUCGAAUUUUCGGCGGAUGCCUCCAAA

Variants of: B1
Assay: self-cleavage kobs at 2500 uM GlcN6P; higher = faster cleavage; RNA array
Conditions: with glucosamine-6-phosphate
Method in brief: (§1)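 A hybridised Cy3 probe tracked barcoded ribozyme variants, transcribed in situ by E. coli RNA polymerase on sequenced MiSeq chips, at 37 °C. The variants received 40 μM to 10 mM glucosamine-6-phosphate in HEPES/KCl/Mg(OAc)2 buffer. kobs came from decay fits and kcat and KM from weighted Michaelis–Menten fits.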

Variant	self-cleavage kobs at 2500 uM GlcN6P
A36U G44A A48C U57C	< 1e-05 s⁻¹
G13U G41C G60A	< 1e-05 s⁻¹
C8U A12C A15U U30A U54G U55G C70U	< 1e-05 s⁻¹
A14C A15G U46C C61G	< 1e-05 s⁻¹
G32C G37U G40U U55G	< 1e-05 s⁻¹
C10G C50G U55A	6.66e-05 ± 2.3e-05 s⁻¹
A15U A52U C67G	0.000122 ± 3.6e-05 s⁻¹
G32A G35C A39G	< 1e-05 s⁻¹
A14C G26U G62U C68U	< 1e-05 s⁻¹
A53G G62C	< 1e-05 s⁻¹
G7A A12C U49C G62A	< 1e-05 s⁻¹
A12U C50G G66C C70A	5.12e-05 ± 2e-05 s⁻¹
A12G U30G U46G	< 1e-05 s⁻¹
A14U C34A C70G	< 1e-05 s⁻¹
G44U U47C C71U	< 1e-05 s⁻¹
C11U G43A U46A U55G U65G G66A	< 1e-05 s⁻¹
C10U U31G A42C	< 1e-05 s⁻¹
A14U G44A C50A	< 1e-05 s⁻¹
C10G G38U	< 1e-05 s⁻¹
G29A A53G C68G	7.42e-05 ± 2e-05 s⁻¹

Variant	self-cleavage kobs at 2500 uM GlcN6P
A6C G29C G51U A53G	< 1e-05 s⁻¹
U46C G60A C70G	< 1e-05 s⁻¹
C11G C50G C61U	6.44e-05 ± 2.1e-05 s⁻¹
C10U C16A U45C	< 1e-05 s⁻¹
C11G A12C C34G A53G U54C	< 1e-05 s⁻¹
G37A A53U G66U	8.93e-05 ± 3.4e-05 s⁻¹
A6U G35U G43U	< 1e-05 s⁻¹
G9A C10G C58U	< 1e-05 s⁻¹
U49G U54G C68G	6.25e-05 ± 2.4e-05 s⁻¹
G7A A39C G63A	< 1e-05 s⁻¹
A6U C8U C58G	< 1e-05 s⁻¹
G26U C71A	0.000394 ± 0.0001 s⁻¹
G35C G38U	< 1e-05 s⁻¹
A6G A12C U56A	0.000102 ± 2.1e-05 s⁻¹
C16U U46G U55C	0.00261 ± 0.00068 s⁻¹
A14G U57A U65G	4.18e-05 ± 1.4e-05 s⁻¹
A15G G35C A64G	< 1e-05 s⁻¹
G35A G40U G43U G59A C67G	< 1e-05 s⁻¹
G62C A64G C70A	< 1e-05 s⁻¹
G7C A52U U55G C68G	< 1e-05 s⁻¹

Variant	self-cleavage kobs at 2500 uM GlcN6P
A6G A12G G51U	< 1e-05 s⁻¹
U30A G37C U65G G66U	< 1e-05 s⁻¹
U65A C67G C71U	3.53e-05 ± 1.5e-05 s⁻¹
U31A G41U C70U	0.00307 ± 0.00088 s⁻¹
G35C A39C A52U G60C G63U	< 1e-05 s⁻¹
C34G G41U A42U	< 1e-05 s⁻¹
C34U C58U G60A	< 1e-05 s⁻¹
G29A A33G G38A G60U	< 1e-05 s⁻¹
C16G U54C C70U	0.00152 ± 0.00038 s⁻¹
A42G G44A G51U	< 1e-05 s⁻¹
C16U G29A G41U G51U	< 1e-05 s⁻¹
G38C U46C U49A	< 1e-05 s⁻¹
G9C G38A A52U	< 1e-05 s⁻¹
A14G U30C U47A	0.000323 ± 8.4e-05 s⁻¹
A14U A15U U56A G59C G63C	< 1e-05 s⁻¹
U30G G37U G40U	< 1e-05 s⁻¹
C8A C10A U30A C61G	< 1e-05 s⁻¹
A42G U65A G66U	7.25e-05 ± 2.4e-05 s⁻¹
G29A U47A A52U	4.18e-05 ± 1.7e-05 s⁻¹

Variants of: B1
Assay: self-cleavage kobs at 640 uM GlcN6P; higher = faster cleavage; RNA array
Conditions: with glucosamine-6-phosphate
Method in brief: as §1

Variant	self-cleavage kobs at 640 uM GlcN6P
G32A C50G	6.29e-05 ± 2.1e-05 s⁻¹
G7A G32A U49G	< 1e-05 s⁻¹
G32A G35C A39G	< 1e-05 s⁻¹
A53G G62C	< 1e-05 s⁻¹
G7A A12C U49C G62A	< 1e-05 s⁻¹
U30A U54C G63A	< 1e-05 s⁻¹
A14U C34A C70G	< 1e-05 s⁻¹
G44U U47C C71U	< 1e-05 s⁻¹
C11U G43A U46A U55G U65G G66A	< 1e-05 s⁻¹
G29A A53G C68G	7.36e-05 ± 2.4e-05 s⁻¹
G13U G60U C70U	< 1e-05 s⁻¹
C11G C50G C61U	7.22e-05 ± 3.5e-05 s⁻¹
U30C G43A C71U	< 1e-05 s⁻¹
C11G A12C C34G A53G U54C	< 1e-05 s⁻¹
G38U U69A	0.000186 ± 9e-05 s⁻¹
A6U G35U G43U	< 1e-05 s⁻¹

Variant	self-cleavage kobs at 640 uM GlcN6P
G9A C10G C58U	< 1e-05 s⁻¹
A36C C67A	< 1e-05 s⁻¹
C11G C16A U31C A42U	< 1e-05 s⁻¹
G26U C71A	0.000733 ± 0.0002 s⁻¹
G35C G38U	< 1e-05 s⁻¹
A6G A12C U56A	5.6e-05 ± 1.6e-05 s⁻¹
G38U U47G C68U	0.000119 ± 4e-05 s⁻¹
C11G U49A C71G	8.96e-05 ± 3.1e-05 s⁻¹
G35A G40U G43U G59A C67G	< 1e-05 s⁻¹
G35C A39C A52U G60C G63U	< 1e-05 s⁻¹
C8G G35A C70G	< 1e-05 s⁻¹
A36C G38C G60C U65A	< 1e-05 s⁻¹
U30G G37U G40U	< 1e-05 s⁻¹
C8A C10A U30A C61G	< 1e-05 s⁻¹
U49G C68G U69G	5.67e-05 ± 2.1e-05 s⁻¹

Variants of: B1
Assay: self-cleavage kobs at 10000 uM GlcN6P; higher = faster cleavage; RNA array
Conditions: with glucosamine-6-phosphate
Method in brief: as §1

Variant	self-cleavage kobs at 10000 uM GlcN6P
G32A C50G	2.9e-05 ± 1.4e-05 s⁻¹
A14G U57A U65G	6.87e-05 ± 1.5e-05 s⁻¹
A42G G44A G51U	< 1e-05 s⁻¹
C16U G29A G41U G51U	< 1e-05 s⁻¹
G9C G38A A52U	< 1e-05 s⁻¹
A14G U30C U47A	0.000556 ± 8e-05 s⁻¹
